In publication PMC9352719, “Interaction between transcribing RNA polymerase and topoisomerase I prevents R-loop formation in E. coli”:

Key:
[1] = molecular target: T1, EcTopoI (topoisomerase I) (Escherichia coli DY330, UniProt P06612 1-865); test: MST; 6 mM Mg2+; range for both random oligos; EMSA: 10 mM Tris-HCl pH 7.5, 50 mM NaCl, 6 mM MgCl2, 37 C 10 min; MST: same plus 0.05% Tween-20, 22 C; settings: protein: recombinant; label: 5'-Cy5; single strand
[2] = molecular target: T1, EcTopoI (topoisomerase I); test: competition; vs labeled Consensus R; about as efficient as Consensus R; EMSA: 10 mM Tris-HCl pH 7.5, 50 mM NaCl, 6 mM MgCl2, 37 C 10 min; MST: same plus 0.05% Tween-20, 22 C; settings: protein: recombinant; single strand
[3] = molecular target: T1, EcTopoI (topoisomerase I); test: EMSA; 6 mM Mg2+; EMSA: 10 mM Tris-HCl pH 7.5, 50 mM NaCl, 6 mM MgCl2, 37 C 10 min; MST: same plus 0.05% Tween-20, 22 C; settings: protein: recombinant; label: 5'-Cy5; single strand

T1 sequence (P06612 whole entry): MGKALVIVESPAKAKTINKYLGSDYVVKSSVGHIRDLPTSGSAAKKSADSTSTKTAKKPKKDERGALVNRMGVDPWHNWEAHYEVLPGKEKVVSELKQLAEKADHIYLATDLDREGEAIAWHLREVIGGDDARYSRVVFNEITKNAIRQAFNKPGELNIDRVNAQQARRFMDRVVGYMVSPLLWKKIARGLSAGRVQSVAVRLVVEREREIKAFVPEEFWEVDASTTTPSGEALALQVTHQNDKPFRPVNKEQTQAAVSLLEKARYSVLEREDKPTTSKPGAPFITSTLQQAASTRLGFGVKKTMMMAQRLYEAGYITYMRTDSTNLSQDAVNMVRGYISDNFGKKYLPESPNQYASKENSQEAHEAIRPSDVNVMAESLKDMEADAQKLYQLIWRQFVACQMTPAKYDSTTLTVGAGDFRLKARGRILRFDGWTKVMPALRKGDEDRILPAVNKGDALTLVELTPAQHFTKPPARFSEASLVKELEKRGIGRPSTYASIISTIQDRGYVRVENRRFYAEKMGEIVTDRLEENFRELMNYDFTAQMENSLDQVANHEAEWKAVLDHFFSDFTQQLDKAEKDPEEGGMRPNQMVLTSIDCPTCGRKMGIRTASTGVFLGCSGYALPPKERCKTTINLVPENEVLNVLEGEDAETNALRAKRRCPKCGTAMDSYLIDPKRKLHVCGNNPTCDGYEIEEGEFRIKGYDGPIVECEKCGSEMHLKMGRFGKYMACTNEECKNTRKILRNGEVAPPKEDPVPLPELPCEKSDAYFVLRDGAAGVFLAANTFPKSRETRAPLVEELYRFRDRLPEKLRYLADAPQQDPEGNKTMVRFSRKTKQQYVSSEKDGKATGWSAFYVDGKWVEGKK

| Binder | Kd [1] [nM] | Kd [3] [nM] | further results |
| --- | --- | --- | --- |
| GCGCACGTAATCCGCAGTGCGGTGCG (ssDNA) [Random F] | ~324 |  |  |
| CGCAAAAAAAAAAAAAAAAAAAACGC (ssDNA) [Poly-A, unlabeled] |  |  | binding result [2]: binds |
| GCGTTTTTTTCTTCATTATTTTTGCG (ssDNA) [Consensus F] |  | 190 ± 87 |  |
| CGCAAAAATAATGAAGAAAAAAACGC (ssDNA) [Consensus R] |  | 207 ± 76 |  |
| CGCTCCGCACTGCGGATTACGTGCGC (ssDNA) [Random R] | ~324 |  |  |
